In patent US20220380433A1:

Legend:
[1] = molecular target: H63 CAR (CD8 signal peptide-H63-human CD8 hinge region-human CD8 transmembrane region-human 4-1BB costimulatory domain-CD3zeta signaling domain), on H63 CAR-T lymphocytes; assay: flow cytometry; biotin-protein L and PE-streptavidin on H63 CAR-T lymphocytes
[2] = molecular target: H63 CAR as expressed from H63 CAR-2A-TMEM59, on H63 CAR-2A-TMEM59-T lymphocytes; assay: flow cytometry; biotin-protein L and PE-streptavidin on H63 CAR-2A-TMEM59-T lymphocytes
Sequence of H63 CAR as expressed from H63 CAR-2A-TMEM59, on H63 CAR-2A-TMEM59-T lymphocytes (chain, as listed by the source): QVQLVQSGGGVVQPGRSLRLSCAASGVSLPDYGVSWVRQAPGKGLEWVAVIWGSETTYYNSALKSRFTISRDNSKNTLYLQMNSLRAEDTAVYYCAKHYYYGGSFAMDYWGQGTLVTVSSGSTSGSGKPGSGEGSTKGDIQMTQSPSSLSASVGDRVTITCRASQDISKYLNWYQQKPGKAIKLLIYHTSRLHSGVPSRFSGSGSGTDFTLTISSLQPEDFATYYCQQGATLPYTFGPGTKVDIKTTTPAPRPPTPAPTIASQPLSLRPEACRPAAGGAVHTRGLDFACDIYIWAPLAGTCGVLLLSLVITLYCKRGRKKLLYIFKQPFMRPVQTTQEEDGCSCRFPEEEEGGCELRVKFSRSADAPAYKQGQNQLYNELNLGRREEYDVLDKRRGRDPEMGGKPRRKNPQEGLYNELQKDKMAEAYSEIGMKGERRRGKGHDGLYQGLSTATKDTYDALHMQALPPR

Sequence of H63 CAR (CD8 signal peptide-H63-human CD8 hinge region-human CD8 transmembrane region-human 4-1BB costimulatory domain-CD3zeta signaling domain), on H63 CAR-T lymphocytes (chain, as listed by the source): as above

CAR positive cells % (protein L-positive) [1]: 82.7% | CAR positive cells % (protein L-positive) [2]: 83.2%
Substance: biotin-protein L (ACROBIOSYSTEMS, RPL-P814R)
